The source of these data is paper PMC11633101.

The assay addresses bovine NECTIN1 with 6×his tag, purified from CHO cells (bovine). As to the kind of experiment: SPR; Biacore 8K, CM5 chip, 25°C, single-cycle mode, PBS; NECTIN1 and CD46 captured on the chip, serial dilutions of BVDV E2 injected; regeneration with glycine pH 2.5. On the technique in general: Surface plasmon resonance follows binding to a sensor surface in real time, without labels.

What is called Kd is the constant that tells how readily two partners part at equilibrium. The substance “BVDV E2 protein with 6×his tag, purified from 293F cells (from UniProt P19711 693-1066) (natural protein)” came in with a Kd of 3.47 pM.
